Laboratory results reported in patent publication US20250084152A1 (DUKE UNIVERSITY, published 2025).

Key:
Assay in all cases: ELISA on LAH peptide
[1] = biological target: B/MY04 LAH peptide (LAH-Fc fusion protein) (Influenza B virus B/Malaysia/2506/2004, UniProt P03461 425-480)
[2] = biological target: H5/VN04 LAH peptide (LAH-Fc fusion protein) (Influenza A virus H5 A/Vietnam/1203/2004, UniProt P87506 416-472)
[3] = biological target: H3/X31 LAH peptide (LAH-Fc fusion protein) (Influenza A virus H3N2 A/Aichi/2/1968, UniProt P03436 421-475)
Sequence of H3/X31 LAH peptide (LAH-Fc fusion protein) (P03436 421-475 limits assumed): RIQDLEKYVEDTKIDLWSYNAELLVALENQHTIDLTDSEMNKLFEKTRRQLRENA

Measured: binding result

Sequence of H5/VN04 LAH peptide (LAH-Fc fusion protein) (P87506 416-472 limits assumed): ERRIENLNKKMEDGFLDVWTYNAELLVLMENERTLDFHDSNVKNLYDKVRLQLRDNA
Sequence of B/MY04 LAH peptide (LAH-Fc fusion protein) (P03461 425-480 limits assumed): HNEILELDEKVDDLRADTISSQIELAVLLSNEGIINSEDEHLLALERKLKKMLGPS

B1: S1V2-72 (antibody, V domains shown)
VH: QVQLVQSGAELKKPGASVKVSCKASGYTFTGNYIHWMRQVPGQGLEWMGWINPRTGDTHHAQKFQGRVDMTRDTSINTAYLELTRLESDDTALYYCARCVFATSQFDPWGQGTLVTVSS
VL: QSALTQPASVSGSPGQSITISCTGTNSDIGSHNLVSWYQQHPGKAPKVMIYDDSKRPSGVSNRFSGSKSGSTASLTISGLQSEDEADYYCCSYAGSSNWVFGGGTKLTLL
no binding: all assays above
